From PMC2764420
Where two headings read alike, the source gives them in different places.

Columns and labels:
Tn10 transposase [1] = experiment: cross-linking
Tn10 transposase [2] = experiment: cross-linking; remark: listed apart in the source
[3] = molecular target: pre-unfolded Tn10 transpososome; experiment: native gel or EMSA
[4] = molecular target: folded Tn10 transpososome (UniProt P0A6X7); experiment: native gel or EMSA
Sequence of UniProt P0A6X7 (P0A6X7 whole entry, looked up): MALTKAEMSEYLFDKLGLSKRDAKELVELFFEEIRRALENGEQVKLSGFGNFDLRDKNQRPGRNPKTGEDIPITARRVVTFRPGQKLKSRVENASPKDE

Tn10 transposase (enzyme) was tested, and the stoichiometry N (Tn10 transposase [1]) was 2 and the stoichiometry N (Tn10 transposase [2]) was 2.

B1: H-NS (histone-like nucleoid-structuring protein), wild type (natural protein)
chain: MSEALKILNNIRTLRAQARECTLETLEEMLEKLEVVVNERREEESAAAAEVEERTRKLQQYREMLIADGIDPNELLNSLAAVKSGTKAKRAQRPAKYSYVDENGETKTWTGQGRTPAVIKKAMDEQGKSLDDFLIKQ
For B1, the Kd [3] was 0.3 nM, the percent of transpososome converted to an H-NS-bound form [3] was > 95% and the percent of transpososome converted to an H-NS form at 6 nM H-NS [4] was 5%.
